Assay: carboxylate reductase activity, N7-acetyl-7-aminoheptanoate to N7-acetyl-7-aminoheptanal, NADPH consumption at 340 nm
Format: biochemical
Conditions: purified enzyme enhanced by sfp gene product, 2 mM N7-acetyl-7-aminoheptanoate, pH 7.5, room temperature, 20 min; FIG. 10
Description: The activity of each of the N-terminal His-tagged carboxylate reductases of SEQ ID NOs: 3, 5, and 6 (see Examples 2 and 3, and FIG. 6) for converting N7-acetyl-7-aminoheptanoate to N7-acetyl-7-aminoheptanal was assayed in triplicate in a buffer composed of a final concentration of 50 mM HEPES buffer (pH=7.5), 2 mM N7-acetyl-7-aminoheptanoate, 10 mM MgCl2, 1 mM ATP, and 1 mM NADPH. The assays were initiated by adding purified carboxylate reductase and phosphopantetheine transferase or the empty vector control to the assay buffer containing the N7-acetyl-7-aminoheptanoate then incubated at room temperature for 20 min. The consumption of NADPH was monitored by absorbance at 340 nm.

B1: SEQ ID NO 5: Mycobacterium abscessus subsp. bolletii (Mycobacterium massiliense) carboxylate reductase, Genbank Accession No. EIV11143.1 (protein)
chain: MTNETNPQQEQLSRRIESLRESDPQFRAAQPDPAVAEQVLRPGLHLSEAIAALMTGYAERPALGERARELVIDQDGRTTLRLLPRFDTTTYGELWSRTTSVAAAWHHDATHPVKAGDLVATLGFTSIDYTVLDLAIMILGGVAVPLQTSAPASQWTTILAEAEPNTLAVSIELIGAAMESVRATPSIKQVVVFDYTPEVDDQREAFEAASTQLAGTGIALETLDAVIARGAALPAAPLYAPSAGDDPLALLIYTSGSTGAPKGAMHSENIVRRWWIREDVMAGTENLPMIGLNFMPMSHIMGRGTLTSTLSTGGTGYFAASSDMSTLFEDMELIRPTALALVPRVCDMVFQRFQTEVDRRLASGDTASAEAVAAEVKADIRDNLFGGRVSAVMVGSAPLSEELGEFIESCFELNLTDGYGSTEAGMVFRDGIVQRPPVIDYKLVDVPELGYFSTDKPHPRGELLLKTDGMFLGYYKRPEVTASVFDADGFYMTGDIVAELAHDNIEIIDRRNNVLKLSQGEFVAVATLEAEYANSPVVHQIYVYGSSERSYLLAVVVPTPEAVAAAKGDAAALKTTIADSLQDIAKEIQLQSYEVPRDFIIEPQPFTQGNGLLTGIAKLARPNLKAHYGPRLEQMYAEIAEQQAAELRALHGVDPDKPALETVLKAAQALLGVSSAELAADAHFTDLGGDSLSALSFSDLLRDIFAVEVPVGVIVSAANDLGGVAKFVDEQRHSGGTRPTAETVHGAGHTEIRAADLTLDKFIDEATLHAAPSLPKAAGIPHTVLLTGSNGYLGHYLALEWLERLDKTDGKLIVIVRGKNAEAAYGRLEEAFDTGDTELLAHFRSLADKHLEVLAGDIGDPNLGLDADTWQRLADTVDVIVHPAALVNHVLPYNQLFGPNVVGTAEIIKLAITTKIKPVTYLSTVAVAAYVDPTTFDEESDIRLISAVRPIDDGYANGYGNAKWAGEVLLREAHDLCGLPVAVFRSDMILAHSRYTGQLNVPDQFTRLILSLIATGIAPGSFYQAQTTGERPLAHYDGLPGDFTAEAITTLGTQVPEGSEGFVTYDCVNPHADGISLDNFVDWLIEAGYPIARIDNYTEWFTRFDTAIRGLSEKQKQHSLLPLLHAFEQPSAAENHGVVPAKRFQHAVQAAGIGPVGQDGTTDIPHLSRRLIVKYAKDLEQLGLL
  acceptance of N7-acetyl-7-aminoheptanoate as substrate (NADPH consumption) against the empty vector control: accepted N7-acetyl-7-aminoheptanoate as substrate

Source: patent US20160145657A1, “Methods and Materials for Producing 7-Carbon Chemicals via a C9 Route” (INVISTA North America S.á.r.l., priority 2014, published 2016)
